Reference: patent publication US12514920B1, “Respiratory syncytial virus mRNA vaccine, and preparation method therefor and use thereof” (Hangzhou Tianlong Pharmaceutical Co., Ltd., priority 2024, dated 2026)

Legend:
[1] = test system: RSV pre-F antibody (3C12); type: physicochemical; settings: for stability under the stress tests (in words): all stress tests, binding to 3C12, ELISA; for Stress resistance parameter, Osmotic pressure (mM) 3000: high osmotic pressure 3000 mM; for Stress resistance parameter, Osmotic pressure (mM) 3000 / Stress resistance parameter, Osmotic pressure (mM) 10: room temperature; for Stress resistance parameter, Osmotic pressure (mM) 3000 / Stress resistance parameter, Osmotic pressure (mM) 10 / Stress resistance parameter, pH 3.5 / Stress resistance parameter, pH 10: 60 min; for Stress resistance parameter, Osmotic pressure (mM) 3000 / Stress resistance parameter, Temperature (° C.) 50 / Stress resistance parameter, Osmotic pressure (mM) 10 / Stress resistance parameter, pH 3.5 / Stress resistance parameter, pH 10 / Stress resistance parameter, Temperature (° C.) 4: ELISA binding to 3C12; for Stress resistance parameter, Temperature (° C.) 50: incubation at 50° C. for 60 min; for Stress resistance parameter, Osmotic pressure (mM) 10: low osmotic pressure 10 mM; for Stress resistance parameter, pH 3.5: pH 3.5, room temperature; for Stress resistance parameter, pH 10: pH 10, room temperature; for Stress resistance parameter, Temperature (° C.) 4: storage at 4° C. for one week
Method in brief: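 RSV F mRNA-vaccine mutants stress-treated: 4° C. for one week, 50° C. for 60 min, low or high osmotic pressure at room temperature for 60 min, acid or base at room temperature for 60 min. Binding to 3C12 (epitope Φ) then measured by ELISA against pre-F trimer standard, HRP anti-human IgG, OD 450/630 nm.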

[2] = test system: RSV F antibody (4B9); assay: ELISA binding of RSV F antigen mutants, epitope III; settings: for Binding amount to antibody/binding amount of PC-RSV-064 to antibody, Epitope III: antibody 4B9, relative to PC-RSV-064
Protocol: (§1) To investigate the binding of the RSV F antigen mutants to antibodies recognizing different epitopes, the binding amount was determined by an ELISA method in this example.
(§2) • 293T cells (purchased from ATCC cell bank); • Primary antibody: RSV pre-F antibody (3C12), epitope ([…] (Novoprotein, Cat. No.: DA101); • RSV pre-F antibody (7H11), epitope Quaternary (Novoprotein, Cat. No.: DA109); • RSV F antibody (11A9), epitope II (Novoprotein, Cat. No.: DA091); • RSV F antibody (4B9), epitope III (Novoprotein, Cat. No.: DA110); • RSV pre-F antibody (7E11), epitope V (Cat. No.: DA119); • Standard: RSV-pre-F trimer protein (Novoprotein, Cat. No.: DRA230); • Secondary antibody: peroxidase AffiniPure goat anti-human IgG (H+L) (Yeasen, Cat. No.: N/A); • Experimental group: mRNA vaccines after screening in Example 5;
(§3) Cell culture and transfection, and protein sample preparation: the experimental procedures were the same as in Example 3.
(§4) Detection of antigen expression by ELISA: the experimental procedures were the same as in Example 5.
(§5) In the present application, the binding of different mutant antigens to antibodies recognizing different epitopes was detected by ELISA, and the strength of the binding of the antigens to the antibodies was measured by the binding amount. (1) The RSV pre-F antibody (3C12) recognizing the epitope Φ binds only to the F protein in the pre-fusion conformation; (2) the RSV pre-F antibody (7H11) recognizes the epitope Quaternary (spanning both epitopes IV and V) and specifically binds to the F protein in the pre-fusion conformation; (3) the RSV F antibody (11A9) recognizing the epitope II can recognize both the pre-fusion and post-fusion conformations of the F protein; (4) the RSV F antibody […] recognizing the epitope III preferentially recognizes the pre-fusion conformation and has relatively weak binding activity for the post-fusion conformation; (5) the RSV pre-F antibody (7E11) recognizing the epitope V binds only to the F protein in the pre-fusion conformation.

[3] = test system: RSV pre-F antibody (7E11); assay: ELISA binding of RSV F antigen mutants, epitope V; settings: for Binding amount to antibody/binding amount of PC-RSV-064 to antibody, Epitope V: antibody 7E11, relative to PC-RSV-064
Protocol: as §1, §2, §3, §4, §5

| Molecule | stability under the stress tests (in words) [1] | Stress resistance parameter, Osmotic pressure (mM) 3000 [1] | Stress resistance parameter, Temperature (° C.) 50 [1] | Stress resistance parameter, Osmotic pressure (mM) 10 [1] | Stress resistance parameter, pH 3.5 [1] | Stress resistance parameter, pH 10 [1] | Stress resistance parameter, Temperature (° C.) 4 [1] | ELISA binding amount, Epitope III, RSV F antibody (4B9) [2] | Binding amount to antibody/binding amount of PC-RSV-064 to antibody, Epitope III [2] | ELISA binding amount, Epitope V, RSV F antibody (7E11) [3] | Binding amount to antibody/binding amount of PC-RSV-064 to antibody, Epitope V [3] |
| --- | --- | --- | --- | --- | --- | --- | --- | --- | --- | --- | --- |
| YK-RSV-009 (protein) QNITEEFYCSTCSAVSKGYLGALRTGWYTSVILIELSNIKENKCNGTDAKVKLIKQELDKYKNAVTDLQLLMQSTPATGSGSAIASGVAVSKVLHLEGEVNKIKSALLSTNKAVVSLSNGVSVLTFKVLDLKNYIDKQLLPIVNKQSCSIPNIETVIEFQQKNNRLLEITREFSVNAGVTTPVSTYMLTNSELLSLINDMPITNDQKKLMSNNVQIVRQQSYSIMSIIKEEVLAYVVQLPLYGVIDTPCWKLHTSPLCTTNTKEGSNICLTRTDRGWYCDNAGSVSFFPQAETCKVQSNRVFCDTMNSRTLPSEVNLCNVDIFNPKYDCKIMTSKTDVSSSVITSLGAIVSCYGKTKCTASNKNRGIIKTFSNGCDYVSNKGVDTVSVGNTLYYVNKQEGQSLYVKCEPIINFYDPLVFPSSEFDASISQVNEKINQSLAFIRKSDELLHNVNAGKSTTNIMITTIIIVIIVILLSLIAVGLLLY | superior stability | 0.69 ± 0.15 | 0.84 ± 0.04 | 0.78 ± 0.15 | 0.60 ± 0.14 | 0.91 ± 0.04 | 0.71 ± 0.11 | 358 ng/mL | 0.12 | 43 ng/mL | 0.13 |
| YK-RSV-010 (protein) QNITEEFYQSTCSAVSKGYLGALRTGWYTCVILIELSNIKENKCNGTDAKVKLIKQELDKYKNAVTDLQLLMQSTPATGSGSAIASGVAVSKVLHLEGEVNKIKSALLSTNKAVVSLSNGVSVCTFKVLDLKNYIDKQLLPIVNKQSCSIPNIETVIEFQQKNNRLLEITREFSVNAGVTTPVSTYMLTNSELLSLINDMPITNDQKKLMSNNVQIVRQQSYSIMSIIKEEVLAYVVQLPLYGVIDTPCWKLHTSPLCTTNTKEGSNICLTRTDRGWYCDNAGSVSFFPQAETCKVQSNRVFCDTMNSRTLPSEVNLCNVDIFNPKYDCKIMTSKTDVSSSVITSLGAIVSCYGKTKCTASNKNRGIIKTFSNGCDYVSNKGVDTVSVGNTLYYVNKQEGQSLYVKGEPIINFYDPLVFPSSEFDASISQVNEKINQSLAFIRKSDELLHNVNAGKSTTNIMITTIIIVIIVILLSLIAVGLLLY | superior stability | 0.84 ± 0.11 | 1.04 ± 0.09 | 0.97 ± 0.07 | 0.82 ± 0.05 | 0.93 ± 0.05 | 0.86 ± 0.08 | 534 ng/mL | 0.19 | 139 ng/mL | 0.43 |
| YK-RSV-043 (protein) QNITEEFYQSTCSAVSKGYLGALRTGWYTSVITIELSNIKENKCNGTDAKVKLIKQELDKYKNAVTDLQLLMQSCPATGSGSAIACGVAVSKVLHLEGEVNKIKSALLSTNKAVVSLSNGVSVLTFKVLDLKNYIDKQLLPILNKQSCSIPNIETVIEFQQKNNRLLEITREFSVNAGVTTPVSTYMLTNSELLSLINDMPITNDQKKLMSNNVQIVRQQSYSIMSIIKEEVLAYVVQLPLYGVIDTPCWKLHTSPLCTTNTKEGSNICLTRTDRGWYCDNAGSVSFFPQAETCKVQSNRVFCDTMNSRTLPSEVNLCNVDIFNPKYDCKIMTSKTDVSSSVITSLGAIVSCYGKTKCTASNKNRGIIKTFSNGCDYVSNKGVDTVSVGNTLYYVNKQEGQSLYVKGEPIINFYDPLVFPSDEFDASISQVNEKINQSLAFIRKSDELLHNVNAGKSTTNIMITTIIIVIIVILLSLIAVGLLLY | superior stability | 0.72 ± 0.09 | 0.66 ± 0.06 | 0.84 ± 0.18 | 0.90 ± 0.13 | 0.75 ± 0.28 | 0.70 ± 0.13 | 6529 ng/mL | 2.28 | 223 ng/mL | 0.69 |
| YK-RSV-048 (protein) QNITEEFYQSTCSAVSKGYLGALRTGWYTSVITIELSNIKENKCNGTDAKVKLIKQELDKYKNAVTDLQLLMQSTPATGSGSFLGFLCGVGSAIASGVAVSKVLHLEGEVNKIKSALLSTNKAVVSLSNGVSVLTFKVLDLKNYIDKQLLPILNKQSCSIPNIETVIEFQQKNNRLLEITREFSVNAGVTTPVSTYMLTNSELLSLINDMPITNDQKKLMSNNVQIVRQQSYSIMSIIKEEVLAYVVQLPLYGVIDTPCWKLHTSPLCTTNTKEGSNICLTRTDRGWYCDNAGSVSFFPQAETCKVQSNRVFCDTMCSRTLPSEVNLCNVDIFNPKYDCKIMTSKTDVSSSVITSLGAIVSCYGKTKCTASNKNRGIIKTFSNGCDYVSNKGVDTVSVGNTLYYVNKQEGQSLYVKGEPIINFYDPLVFPSDEFDASISQVNEKINQSLAFIRKSDELLHNVNAGKSTTNIMITTIIIVIIVILLSLIAVGLLLY | superior stability | 0.61 ± 0.17 | 0.70 ± 0.07 | 0.75 ± 0.00 | 0.61 ± 0.07 | 1.13 ± 0.19 | 0.46 ± 0.08 | 4655 ng/mL | 1.62 | 217 ng/mL | 0.68 |
| YK-RSV-050 (protein) QNITEEFYQSTCSAVSKGYLGALRTGWYTSVITIELSNIKENKCNGTDAKVKLIKQELDKYKNAVTDLQLLMQSTPATGSGSFLGFCLGVGSAIASGVAVSKVLHLEGEVNKIKSALLSTNKAVVSLSNGVSVLTFKVLDLKNYIDKQLLPILNKQSCSIPNIETVIEFQQKNNRLLEITREFSVNAGVTTPVSTYMLTNSELLSLINDMPITNDQKKLMSNNVQIVRQQSYSIMSIIKEEVLAYVVQLPLYGVIDTPCWKLHTSPLCTTNTKEGSNICLTRTDRGWYCDNAGSVSFFPQAETCKVQSNRVFCDTMCSRTLPSEVNLCNVDIFNPKYDCKIMTSKTDVSSSVITSLGAIVSCYGKTKCTASNKNRGIIKTFSNGCDYVSNKGVDTVSVGNTLYYVNKQEGQSLYVKGEPIINFYDPLVFPSDEFDASISQVNEKINQSLAFIRKSDELLHNVNAGKSTTNIMITTIIIVIIVILLSLIAVGLLLY | superior stability | 0.66 ± 0.15 | 0.69 ± 0.15 | 0.87 ± 0.19 | 1.23 ± 0.27 | 1.16 ± 0.37 | 0.46 ± 0.07 | 3494 ng/mL | 1.22 | 923 ng/mL | 2.88 |
